Blank lines part the entries; values can stand above or below the substance they belong to.
Columns and labels:
[1] = biological target: recombinant mouse Galectin-9 (R&D Systems) (mouse) (UniProt O08573); experiment: Control in the bead flow cytometry assay: Dectin-1 IgG Fc beads + rGal-9, stained with the fluorescent isotype antibody instead of αGal-9 (row + + - + -) [cont.) F]
[2] = biological target: Probable ATP-dependent RNA helicase DDX17 (mouse) (UniProt Q501J6); experiment: Dectin-1 Fc affinity purification from KPC cell lysate, mass spectrometry
[3] = biological target: Prohibitin (mouse) (UniProt P67778); experiment: as above
[4] = biological target: Dolichyl-diphosphooligosaccharide-protein glycosyltransferase subunit 1 (mouse) (UniProt Q91YQ5); experiment: as above
Chain of Dolichyl-diphosphooligosaccharide-protein glycosyltransferase subunit 1 (mouse) (Q91YQ5 26-608 limits assumed): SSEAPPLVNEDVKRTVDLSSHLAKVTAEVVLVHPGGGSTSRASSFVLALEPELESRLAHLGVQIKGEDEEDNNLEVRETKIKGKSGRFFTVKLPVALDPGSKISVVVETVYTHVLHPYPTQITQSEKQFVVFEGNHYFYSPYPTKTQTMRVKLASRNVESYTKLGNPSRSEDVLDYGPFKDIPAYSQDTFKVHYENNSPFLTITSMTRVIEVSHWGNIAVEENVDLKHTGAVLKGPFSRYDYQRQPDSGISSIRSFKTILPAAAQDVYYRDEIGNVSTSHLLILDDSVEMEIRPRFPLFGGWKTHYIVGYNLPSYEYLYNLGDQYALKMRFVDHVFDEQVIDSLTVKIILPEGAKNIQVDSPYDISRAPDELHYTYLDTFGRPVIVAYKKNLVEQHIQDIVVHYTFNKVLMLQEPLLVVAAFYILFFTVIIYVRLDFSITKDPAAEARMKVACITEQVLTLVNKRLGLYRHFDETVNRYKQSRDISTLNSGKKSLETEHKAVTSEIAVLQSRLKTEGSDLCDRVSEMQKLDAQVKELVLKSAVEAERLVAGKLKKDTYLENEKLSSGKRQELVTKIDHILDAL

[5] = biological target: Elongation factor 1-gamma (mouse) (UniProt Q9D8N0); experiment: as above
[6] = biological target: Clusterin (mouse) (UniProt Q06890); experiment: as above
[7] = biological target: Cytochrome b-c1 complex subunit 2, mitochondrial (mouse) (UniProt Q9DB77); experiment: as above
Chain of Cytochrome b-c1 complex subunit 2, mitochondrial (mouse) (Q9DB77 15-453 limits assumed, one chain of several): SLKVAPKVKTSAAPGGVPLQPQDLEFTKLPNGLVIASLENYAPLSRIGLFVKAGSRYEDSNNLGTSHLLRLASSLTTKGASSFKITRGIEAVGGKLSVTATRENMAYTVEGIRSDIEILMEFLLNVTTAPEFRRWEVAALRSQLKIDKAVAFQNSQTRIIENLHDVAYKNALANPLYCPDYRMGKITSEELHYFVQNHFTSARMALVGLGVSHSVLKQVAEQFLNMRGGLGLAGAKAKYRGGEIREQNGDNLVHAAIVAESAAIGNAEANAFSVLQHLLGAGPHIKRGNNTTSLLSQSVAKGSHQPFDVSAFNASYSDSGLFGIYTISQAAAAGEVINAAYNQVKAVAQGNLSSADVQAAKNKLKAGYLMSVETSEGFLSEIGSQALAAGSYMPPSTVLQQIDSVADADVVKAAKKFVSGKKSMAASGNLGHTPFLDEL

[8] = biological target: 60S ribosomal protein L18 (mouse) (UniProt P35980); experiment: as above
[9] = biological target: Isoform 2 of Microtubule-associated protein 4 (mouse) (UniProt P27546); experiment: as above
Chain of Isoform 2 of Microtubule-associated protein 4 (mouse) (P27546 other isoform, or with tags, fused parts or gaps limits assumed): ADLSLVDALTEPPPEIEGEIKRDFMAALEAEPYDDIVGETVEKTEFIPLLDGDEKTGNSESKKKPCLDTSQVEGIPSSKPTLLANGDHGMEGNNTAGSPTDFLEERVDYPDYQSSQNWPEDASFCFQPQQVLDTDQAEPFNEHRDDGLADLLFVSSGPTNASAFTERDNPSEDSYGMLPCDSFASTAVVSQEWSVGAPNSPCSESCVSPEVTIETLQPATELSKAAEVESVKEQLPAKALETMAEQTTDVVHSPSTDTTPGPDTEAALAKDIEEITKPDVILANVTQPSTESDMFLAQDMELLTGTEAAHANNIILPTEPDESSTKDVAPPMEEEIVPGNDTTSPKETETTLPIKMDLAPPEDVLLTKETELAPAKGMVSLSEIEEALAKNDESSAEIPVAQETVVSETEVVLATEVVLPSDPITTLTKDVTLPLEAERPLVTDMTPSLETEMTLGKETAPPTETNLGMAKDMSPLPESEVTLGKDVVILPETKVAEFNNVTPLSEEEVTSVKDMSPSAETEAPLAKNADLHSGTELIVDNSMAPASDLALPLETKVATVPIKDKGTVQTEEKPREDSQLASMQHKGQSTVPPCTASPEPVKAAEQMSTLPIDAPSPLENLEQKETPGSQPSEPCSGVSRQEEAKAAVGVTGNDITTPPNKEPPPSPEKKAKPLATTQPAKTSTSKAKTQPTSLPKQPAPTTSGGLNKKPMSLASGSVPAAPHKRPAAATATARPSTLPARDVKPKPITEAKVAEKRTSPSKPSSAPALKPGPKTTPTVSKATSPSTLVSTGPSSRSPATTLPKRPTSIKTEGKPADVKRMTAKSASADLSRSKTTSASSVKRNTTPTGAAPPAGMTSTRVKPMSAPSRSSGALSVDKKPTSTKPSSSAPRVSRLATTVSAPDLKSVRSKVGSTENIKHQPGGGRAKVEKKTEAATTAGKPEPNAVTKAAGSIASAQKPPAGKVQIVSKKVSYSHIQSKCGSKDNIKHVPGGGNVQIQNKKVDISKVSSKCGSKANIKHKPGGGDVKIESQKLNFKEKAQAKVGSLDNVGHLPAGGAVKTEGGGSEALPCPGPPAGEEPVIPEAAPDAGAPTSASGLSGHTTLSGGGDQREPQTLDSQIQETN

[10] = biological target: Polyadenylate-binding protein 1 (mouse) (UniProt P29341); experiment: as above
Chain of Polyadenylate-binding protein 1 (mouse) (P29341 whole entry): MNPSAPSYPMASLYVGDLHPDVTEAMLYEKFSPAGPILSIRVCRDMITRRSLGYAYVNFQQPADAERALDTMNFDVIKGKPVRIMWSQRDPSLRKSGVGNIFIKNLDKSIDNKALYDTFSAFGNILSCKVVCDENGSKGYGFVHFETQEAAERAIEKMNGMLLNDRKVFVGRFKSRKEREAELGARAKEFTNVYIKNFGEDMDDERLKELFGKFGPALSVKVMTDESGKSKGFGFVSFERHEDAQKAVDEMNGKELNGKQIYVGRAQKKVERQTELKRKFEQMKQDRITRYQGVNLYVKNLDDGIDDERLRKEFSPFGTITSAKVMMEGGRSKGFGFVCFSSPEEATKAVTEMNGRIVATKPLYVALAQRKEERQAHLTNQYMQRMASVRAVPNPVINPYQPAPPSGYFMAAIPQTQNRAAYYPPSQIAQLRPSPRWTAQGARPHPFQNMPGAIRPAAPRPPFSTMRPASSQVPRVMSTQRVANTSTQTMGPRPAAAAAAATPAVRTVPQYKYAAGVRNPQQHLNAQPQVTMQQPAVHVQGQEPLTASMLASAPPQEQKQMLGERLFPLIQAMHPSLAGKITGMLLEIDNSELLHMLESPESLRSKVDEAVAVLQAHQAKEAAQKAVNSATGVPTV

[11] = biological target: Endoplasmin (mouse) (UniProt P08113); experiment: as above
Chain of Endoplasmin (mouse) (P08113 22-802 limits assumed): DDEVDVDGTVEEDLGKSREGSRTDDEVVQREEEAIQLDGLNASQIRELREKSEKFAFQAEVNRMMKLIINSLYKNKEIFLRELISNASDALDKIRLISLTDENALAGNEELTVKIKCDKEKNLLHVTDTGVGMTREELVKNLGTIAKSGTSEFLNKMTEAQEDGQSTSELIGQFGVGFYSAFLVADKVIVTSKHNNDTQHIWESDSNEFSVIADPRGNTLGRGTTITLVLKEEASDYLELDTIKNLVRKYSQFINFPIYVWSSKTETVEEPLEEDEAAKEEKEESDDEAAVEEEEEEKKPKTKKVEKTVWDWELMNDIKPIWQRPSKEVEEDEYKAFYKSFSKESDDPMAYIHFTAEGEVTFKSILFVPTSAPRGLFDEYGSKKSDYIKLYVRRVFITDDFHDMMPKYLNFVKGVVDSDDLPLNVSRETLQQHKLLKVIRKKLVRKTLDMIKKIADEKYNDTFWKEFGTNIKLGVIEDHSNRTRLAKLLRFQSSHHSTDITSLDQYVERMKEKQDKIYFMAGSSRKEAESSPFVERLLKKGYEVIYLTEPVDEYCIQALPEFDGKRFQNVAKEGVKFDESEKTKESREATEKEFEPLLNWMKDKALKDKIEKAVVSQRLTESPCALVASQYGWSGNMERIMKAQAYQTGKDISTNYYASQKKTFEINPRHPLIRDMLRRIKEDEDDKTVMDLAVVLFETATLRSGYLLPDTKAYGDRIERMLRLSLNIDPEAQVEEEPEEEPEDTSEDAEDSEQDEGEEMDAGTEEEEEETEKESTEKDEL

[12] = biological target: Eef2 protein (mouse) (UniProt P58252); experiment: as above
[13] = biological target: Putative uncharacterized protein (Sqrdl) (mouse) (UniProt Q9R112); experiment: as above
Chain of Putative uncharacterized protein (Sqrdl) (mouse) (Q9R112 whole entry): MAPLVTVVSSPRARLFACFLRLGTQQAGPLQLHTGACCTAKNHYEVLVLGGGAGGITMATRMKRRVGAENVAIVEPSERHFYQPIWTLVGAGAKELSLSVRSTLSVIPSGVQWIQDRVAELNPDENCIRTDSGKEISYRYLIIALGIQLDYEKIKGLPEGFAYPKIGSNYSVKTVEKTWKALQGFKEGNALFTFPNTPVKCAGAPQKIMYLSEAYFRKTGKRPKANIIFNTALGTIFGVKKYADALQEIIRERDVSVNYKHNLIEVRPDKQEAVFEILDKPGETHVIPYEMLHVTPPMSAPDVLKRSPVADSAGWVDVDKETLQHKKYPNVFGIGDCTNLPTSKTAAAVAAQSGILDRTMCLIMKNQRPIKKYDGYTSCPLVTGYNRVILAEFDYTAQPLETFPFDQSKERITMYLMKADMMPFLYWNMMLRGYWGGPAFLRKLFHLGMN

[14] = biological target: Elongation factor 1-alpha 1 (mouse) (UniProt P10126); experiment: as above
Chain of Elongation factor 1-alpha 1 (mouse) (P10126 2-462 limits assumed): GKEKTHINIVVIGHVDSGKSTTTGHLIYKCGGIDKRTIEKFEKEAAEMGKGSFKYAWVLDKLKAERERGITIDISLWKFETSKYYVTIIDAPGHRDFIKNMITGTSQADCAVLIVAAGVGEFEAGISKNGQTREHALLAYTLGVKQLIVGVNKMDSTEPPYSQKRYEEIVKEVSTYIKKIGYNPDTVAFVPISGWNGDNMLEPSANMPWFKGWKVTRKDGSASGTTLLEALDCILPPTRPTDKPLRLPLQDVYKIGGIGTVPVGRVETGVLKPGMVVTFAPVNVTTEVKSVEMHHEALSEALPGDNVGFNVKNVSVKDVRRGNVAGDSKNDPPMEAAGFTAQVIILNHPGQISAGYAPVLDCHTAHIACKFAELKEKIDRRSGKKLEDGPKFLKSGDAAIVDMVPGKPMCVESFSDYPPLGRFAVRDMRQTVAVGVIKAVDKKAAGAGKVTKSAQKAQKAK

[15] = biological target: Peroxiredoxin-1 (mouse) (UniProt P35700); experiment: as above
Chain of Peroxiredoxin-1 (mouse) (P35700 2-199 limits assumed): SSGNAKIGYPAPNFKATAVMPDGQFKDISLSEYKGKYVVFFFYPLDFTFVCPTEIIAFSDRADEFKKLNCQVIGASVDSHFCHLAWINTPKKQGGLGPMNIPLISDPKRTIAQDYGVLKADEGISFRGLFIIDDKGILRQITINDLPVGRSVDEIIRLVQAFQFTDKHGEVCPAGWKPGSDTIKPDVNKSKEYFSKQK

[16] = biological target: Sodium/potassium-transporting ATPase subunit alpha-1 (mouse) (UniProt Q8VDN2); experiment: as above

Chain of human IgG Fc-conjugated Dectin-1 fusion protein (murine Dectin-1 IgG Fc; fc-mdec1a, InvivoGen) (Q6QLQ4 69-244 limits assumed): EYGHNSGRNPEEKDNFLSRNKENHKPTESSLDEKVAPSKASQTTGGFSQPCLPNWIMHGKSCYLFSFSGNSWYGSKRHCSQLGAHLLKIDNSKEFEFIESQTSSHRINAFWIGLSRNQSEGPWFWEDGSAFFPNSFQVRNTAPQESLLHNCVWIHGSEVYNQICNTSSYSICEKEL

- MFI [1]: 669
Substance: fluorescently-conjugated isotype antibody

- # PSM (IP1) (peptide spectral matches) [2]: 7
- # PSM (IP2) (peptide spectral matches) [2]: 36
- # PSM (IP1) (peptide spectral matches) [3]: 5
- # PSM (IP2) (peptide spectral matches) [3]: 6
- # PSM (IP1) (peptide spectral matches) [4]: 7
- # PSM (IP2) (peptide spectral matches) [4]: 14
- # PSM (IP1) (peptide spectral matches) [5]: 11
- # PSM (IP2) (peptide spectral matches) [5]: 11
- # PSM (IP1) (peptide spectral matches) [6]: 8
- # PSM (IP2) (peptide spectral matches) [6]: 9
- # PSM (IP1) (peptide spectral matches) [7]: 8
- # PSM (IP2) (peptide spectral matches) [7]: 8
- # PSM (IP1) (peptide spectral matches) [8]: 4
- # PSM (IP2) (peptide spectral matches) [8]: 10
- # PSM (IP1) (peptide spectral matches) [9]: 6
- # PSM (IP2) (peptide spectral matches) [9]: 23
- # PSM (IP1) (peptide spectral matches) [10]: 13
- # PSM (IP2) (peptide spectral matches) [10]: 92
- # PSM (IP1) (peptide spectral matches) [11]: 30
- # PSM (IP2) (peptide spectral matches) [11]: 8
- # PSM (IP1) (peptide spectral matches) [12]: 23
- # PSM (IP2) (peptide spectral matches) [12]: 31
- # PSM (IP1) (peptide spectral matches) [13]: 6
- # PSM (IP2) (peptide spectral matches) [13]: 19
- # PSM (IP1) (peptide spectral matches) [14]: 23
- # PSM (IP2) (peptide spectral matches) [14]: 48
- # PSM (IP1) (peptide spectral matches) [15]: 7
- # PSM (IP2) (peptide spectral matches) [15]: 16
- # PSM (IP1) (peptide spectral matches) [16]: 13
- # PSM (IP2) (peptide spectral matches) [16]: 14
Substance: human IgG Fc-conjugated Dectin-1 fusion protein (murine Dectin-1 IgG Fc; fc-mdec1a, InvivoGen) (from UniProt Q6QLQ4 69-244) (Fc fusion)

From patent US20180044422A1, “TREATING SOLID TUMOR BY TARGETING DECTIN-1 SIGNALING” (New York University, priority 2016, published 2018)
